Measurements as given in patent US20260217847A1 (NANJING REGENECORE BIOTECH, published 2026).
Residue numbers refer to the chain shown, from its start.

B1: anti-humanized TfR1 protein single-domain antibody 7G10 (VHH clone, crude extract from pMECS) (VHH, not shown: small tags and cut ends)
VHH: ESGGGLVQAGASLKLSCNGSGRTFISYAMGWFRQAPGKQREFVAAERWSGSGIYYADSLKGRFTISRDNAKNTVYLEMNNLKPEDTAVYYCAAREGGLLHVATSYDYWGQGTQVTVSS
B2: anti-humanized TfR1 protein single-domain antibody 7G5 (VHH clone, crude extract from pMECS) (VHH, not shown: small tags and cut ends)
VHH: ESGGGSVQPGGSLRLSCAVSGSIFSIDTMAWYRQAPGKQRELVAAITKGGSRNYADSVKGRFTISRDNAKNTVYLQMNSLKPEDTAVYYCLADRLFRDRSWGQGTQVTVSS
B3: anti-humanized TfR1 protein single-domain antibody 2H7 (VHH clone, crude extract from pMECS) (VHH, not shown: small tags and cut ends)
VHH: ESGGGLVQPGESLRLSCVASGSIWSIYTMGWYRQAPGKQRDFVASITGDSTRTLESVKDRFIISRDNTKNTLYLQMNSLKPEDTAVYYCQAITSLGEYWGQGTQVTVSS
B4: anti-humanized TfR1 protein single-domain antibody 4D11 (VHH clone, crude extract from pMECS) (VHH, not shown: small tags and cut ends)
VHH: B3 VHH with G48R, T68A, Q90H
B5: anti-humanized TfR1 protein single-domain antibody 5D3 (VHH clone, crude extract from pMECS) (VHH, not shown: small tags and cut ends)
VHH: ESGGGLVEPGGSLRLSCAASGNIFSINNMYWHRQAPGKQRELVGGITRGGITNYVDSVKGRFTISRDNAKNTVYLQMNSLKPEDTAVYFCNAHPWRLGIADYWGQGTQVTVSS
B6: anti-humanized TfR1 protein single-domain antibody 7D10 (VHH clone, crude extract from pMECS) (VHH, not shown: small tags and cut ends)
VHH: ESGGGLVQPGGSLRLSCATSGGTFEMYAMAWFRQAPGKDREGVAGFSWRDSSTTYYSDSVKGRFTISRDNAKNTVYLQMNSLKPEDTAVYYCAARPYVSRWSESSGYDYWGQGTQVTVSS
B7: anti-humanized TfR1 protein single-domain antibody 5D1 (VHH clone, crude extract from pMECS) (VHH, not shown: small tags and cut ends)
VHH: ESGGGLVQPGESLRLSCVASGSIWSIYTMGWYRQAPGKQRDFVASITRDGGRRHAESVKDRFTISRDNAKNTLYLQMNSLKPEDTAVYSCLAITSLGEYWGQGTQVTVSS
B8: anti-humanized TfR1 protein single-domain antibody 4C5 (VHH clone, crude extract from pMECS) (VHH, not shown: small tags and cut ends)
VHH: B7 VHH with V18A, K38L, A44G, T47A, D49E, H54Y, L73M, P82R, S89Y, L91N
B9: anti-humanized TfR1 protein single-domain antibody 7A3 (VHH clone, crude extract from pMECS) (VHH, not shown: small tags and cut ends)
VHH: B7 VHH with G50S, H54Y, M77T, S89Y, L91H
B10: anti-humanized TfR1 protein single-domain antibody 8E10 (VHH clone, crude extract from pMECS) (VHH, not shown: small tags and cut ends)
VHH: ESGGGLVQAGGSLRLSCAFSGPPFSTYGMGWFRQAPGKEREFVATISGSGFTTTYADSVKGRFTISRDNAKNTVYLQMNSLKPGDTAVYYCAAGVLDGTNWHEYDYWGQGTQVTVSS
B11: anti-humanized TfR1 protein single-domain antibody 5A3 (VHH clone, crude extract from pMECS) (VHH, not shown: small tags and cut ends)
VHH: ESGGGLVQAGGSLTLSCAVSRRAFNTKAMGWFRQAPGKEREFVATISWSGFSTNYADSVKGRFTISRDNAKNTVYLQMNSLKPGDTAVYYCAAGVLDGTNWHEYDYWGQGTQVTVSS
B12: anti-humanized TfR1 protein single-domain antibody 8B8 (VHH clone, crude extract from pMECS) (VHH, not shown: small tags and cut ends)
VHH: B10 VHH with A9P, A18V, F19A, P22R, P23T, Y27S, G48W, G98S, N100S

What follows are binders tested against T1, human recombinant TfR1 protein (amino acids 89-760) (human, UniProt P02786 89-760) (assay: ELISA of crude extracts on coated TfR1, anti-HA HRP; positive clone = OD at least 5-fold over control).
T1 construct: range 89-760; Expressed in 293F cells from pcDNA3.4; also called humanized TfR1 protein; humanized recombinant TfR1 protein
Protocol: Crude antibody extracts were obtained using osmotic lysis. 100 μL of the obtained crude antibody extract was transferred to the TfR1-coated ELISA plate and incubated at room temperature for 1 hour. Unbound antibodies were washed away with PBST buffer with Tween-20 (PBS purchased from Sangon Biotech, Cat. No. B548117-0500; Tween-20 purchased from Beyotime Biotechnology, Cat. No. ST825). 100 μL of 1:2000-diluted mouse anti-HA horseradish peroxidase (HRP)-conjugated antibody (Thermo Fisher) was added and incubated at room temperature for 1 hour. After washing with PBST buffer to remove unbound antibodies, HRP chromogenic solution was added, followed by a 15-minute reaction at 37° C. With the stop solution added, the absorbance was read at 450 nm using a microplate reader (purchased from TECAN).

T1 sequence (P02786 89-760 limits assumed): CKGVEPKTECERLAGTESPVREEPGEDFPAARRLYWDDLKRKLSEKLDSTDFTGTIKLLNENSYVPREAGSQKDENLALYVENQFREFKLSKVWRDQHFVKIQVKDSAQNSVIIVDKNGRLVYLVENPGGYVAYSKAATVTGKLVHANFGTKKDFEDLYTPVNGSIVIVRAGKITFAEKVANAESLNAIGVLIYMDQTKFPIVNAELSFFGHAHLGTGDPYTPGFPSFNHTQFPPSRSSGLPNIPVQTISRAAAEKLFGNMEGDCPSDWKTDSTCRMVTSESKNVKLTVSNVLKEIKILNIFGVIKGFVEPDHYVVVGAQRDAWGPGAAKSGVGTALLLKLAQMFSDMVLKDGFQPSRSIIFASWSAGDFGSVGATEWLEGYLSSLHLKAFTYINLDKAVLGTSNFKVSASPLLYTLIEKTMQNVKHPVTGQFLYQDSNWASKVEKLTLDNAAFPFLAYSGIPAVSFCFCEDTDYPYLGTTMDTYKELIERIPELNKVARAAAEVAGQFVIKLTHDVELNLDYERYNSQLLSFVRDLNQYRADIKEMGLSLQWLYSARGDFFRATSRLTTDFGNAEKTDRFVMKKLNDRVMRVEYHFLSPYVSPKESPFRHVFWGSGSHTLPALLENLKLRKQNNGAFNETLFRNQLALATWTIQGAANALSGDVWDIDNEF

Binding result, binds:
B1
B2
B3
B4
B5
B6
B7
B8
B9
B10
B11
B12
